The text below walks through data of US20200149021, “SYSTEM AND METHOD FOR GENOME EDITING” (INSTITUTE OF ZOOLOGY, CHINESE ACADEMY OF SCIENCES, published 2020).

For one data set, the target named is T1, ArCpf1 (Agathobacter rectalis).
T1 chain: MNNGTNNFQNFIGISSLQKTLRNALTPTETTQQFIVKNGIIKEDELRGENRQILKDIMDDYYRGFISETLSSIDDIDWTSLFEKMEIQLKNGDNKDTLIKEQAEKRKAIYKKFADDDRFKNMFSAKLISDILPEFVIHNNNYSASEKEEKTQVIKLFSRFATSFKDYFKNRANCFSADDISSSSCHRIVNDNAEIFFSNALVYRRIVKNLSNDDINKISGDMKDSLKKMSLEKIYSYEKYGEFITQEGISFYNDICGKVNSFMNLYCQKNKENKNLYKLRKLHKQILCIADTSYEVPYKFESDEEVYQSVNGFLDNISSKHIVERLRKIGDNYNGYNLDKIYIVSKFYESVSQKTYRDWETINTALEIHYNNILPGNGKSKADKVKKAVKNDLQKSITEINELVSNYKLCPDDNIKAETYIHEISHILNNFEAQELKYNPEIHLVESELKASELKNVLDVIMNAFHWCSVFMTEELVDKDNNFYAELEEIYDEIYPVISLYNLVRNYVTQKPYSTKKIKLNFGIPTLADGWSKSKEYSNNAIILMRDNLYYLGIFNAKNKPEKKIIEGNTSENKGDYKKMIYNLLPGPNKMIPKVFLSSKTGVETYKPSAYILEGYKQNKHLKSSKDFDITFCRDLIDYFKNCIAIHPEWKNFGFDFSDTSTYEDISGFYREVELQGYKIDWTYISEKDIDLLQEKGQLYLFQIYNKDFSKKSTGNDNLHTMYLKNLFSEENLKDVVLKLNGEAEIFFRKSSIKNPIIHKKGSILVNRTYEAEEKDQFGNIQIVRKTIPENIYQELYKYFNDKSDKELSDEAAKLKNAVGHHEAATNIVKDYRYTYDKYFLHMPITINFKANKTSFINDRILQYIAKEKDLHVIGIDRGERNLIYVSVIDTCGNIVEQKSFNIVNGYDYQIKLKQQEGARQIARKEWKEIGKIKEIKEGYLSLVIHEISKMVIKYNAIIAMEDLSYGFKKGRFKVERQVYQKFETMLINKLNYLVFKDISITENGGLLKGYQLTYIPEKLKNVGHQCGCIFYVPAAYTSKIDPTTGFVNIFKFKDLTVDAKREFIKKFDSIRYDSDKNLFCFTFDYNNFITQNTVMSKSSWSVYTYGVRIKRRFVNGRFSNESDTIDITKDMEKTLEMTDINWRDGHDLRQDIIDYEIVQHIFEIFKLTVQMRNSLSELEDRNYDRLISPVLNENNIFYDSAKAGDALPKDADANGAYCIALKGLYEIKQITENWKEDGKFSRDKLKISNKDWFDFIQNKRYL
Briefly: cell_activity; PAM TTTC; T7EI. The settings on record: tags: NLS, HA (2A-eGFP vector). Here is the method: (§1) GFP-positive cells were sorted by FACS, lysed with Buffer L+ 1/100V Protease K (Biotool) at 55° C. for 30 min, inactivated at 95° C. for 5 min, and directly used for PCR detection. Appropriate primers were designed near the Cpf1 targeting site, and the amplified product was purified using DNA Clean & Concentrator™-5 kit (ZYMO Research). 200 ng of purified PCR product was added into 1 uL of NEBuffer2 (NEB) and diluted to 10 uL with ddH₂O. Then, heterodimers were formed by re-annealing according to the previously reported method (Li, W., et al., Simultaneous generation and germline transmission of multiple gene mutations in rat using CRISPR-Cas systems. Nat Biotechnol, 2013. 31(8): p. 684-6). The reannealed product was added with 0.3 uL of T7EI endnucelease and 1/10 V NEBuffer2 (NEB), and digested at 37° C. for 1 h 30 min. Genotype analysis was performed by 3% TAE-Gel electrophoresis. Indels were calculated according to the method reported in the previous article (Cong, L., et al., Multiplex genome engineering using CRISPR/Cas systems. Science, 2013. 339(6121): p. 819-23).
(§2) The cells were transfected with Cpf1, crRNA31, and crRNA2 plasmids, and it was confirmed by PCR and T7EI analysis that crRNA31 can increase the editing efficiency of five Cpf1s of ArCpf1, BsCpf1, HkCpf1, PrCpf1, and PxCpf1 at the site MeCP2-4 by two folds (FIG. 13B).

The next data set has as its target T2, PxCpf1 (Pseudobutyrivibrio xylanivorans).
T2 chain: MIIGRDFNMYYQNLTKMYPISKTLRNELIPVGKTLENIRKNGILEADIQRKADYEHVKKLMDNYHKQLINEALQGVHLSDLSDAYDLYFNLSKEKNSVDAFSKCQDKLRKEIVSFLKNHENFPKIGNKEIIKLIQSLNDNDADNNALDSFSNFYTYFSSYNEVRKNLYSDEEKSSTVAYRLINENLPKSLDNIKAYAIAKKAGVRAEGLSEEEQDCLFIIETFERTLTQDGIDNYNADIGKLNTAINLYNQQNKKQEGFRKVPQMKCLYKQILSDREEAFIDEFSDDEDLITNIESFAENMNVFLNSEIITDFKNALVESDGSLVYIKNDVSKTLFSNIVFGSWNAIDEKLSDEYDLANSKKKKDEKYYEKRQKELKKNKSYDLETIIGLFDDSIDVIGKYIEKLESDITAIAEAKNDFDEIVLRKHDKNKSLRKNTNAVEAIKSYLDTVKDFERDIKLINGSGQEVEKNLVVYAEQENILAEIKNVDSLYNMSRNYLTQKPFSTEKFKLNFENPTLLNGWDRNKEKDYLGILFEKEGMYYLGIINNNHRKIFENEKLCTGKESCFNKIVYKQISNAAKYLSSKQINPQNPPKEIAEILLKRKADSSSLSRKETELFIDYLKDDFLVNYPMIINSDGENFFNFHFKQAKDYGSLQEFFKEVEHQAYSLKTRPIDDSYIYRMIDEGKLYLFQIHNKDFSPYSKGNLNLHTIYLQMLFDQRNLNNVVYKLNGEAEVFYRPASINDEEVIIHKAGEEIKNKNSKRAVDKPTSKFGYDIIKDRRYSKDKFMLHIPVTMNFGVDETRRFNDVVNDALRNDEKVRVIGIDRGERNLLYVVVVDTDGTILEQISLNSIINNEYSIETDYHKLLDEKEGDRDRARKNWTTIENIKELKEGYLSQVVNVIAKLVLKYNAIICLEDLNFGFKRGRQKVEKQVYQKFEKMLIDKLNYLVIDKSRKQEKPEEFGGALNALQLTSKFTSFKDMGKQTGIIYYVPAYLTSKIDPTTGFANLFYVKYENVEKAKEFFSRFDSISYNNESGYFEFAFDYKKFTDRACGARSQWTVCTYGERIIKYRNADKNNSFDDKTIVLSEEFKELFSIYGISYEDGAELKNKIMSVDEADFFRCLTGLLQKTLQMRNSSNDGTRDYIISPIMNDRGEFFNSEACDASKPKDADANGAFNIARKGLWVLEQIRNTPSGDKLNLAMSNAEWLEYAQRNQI
Briefly: cell_activity; PAM TTTC; (T)TTN; T7EI. The settings on record: tags: HA (2A-eGFP vector). Here is the method:
as §1, §2

B1: crRNA31 MeCP2 site 4 ; Mouse MeCP2 site 4 (ssRNA ; dsDNA)
RNA: AUUUCUACUAUGGUAGAUGUGUCCAACCUUCAGGCAAGGUG
DNA 1: TTTCGTGTCCAACCTTCAGGCAAGGTG
DNA 2: CACCTTGCCTGAAGGTTGGACACGAAA
In the case of B1, the editing efficiency with ArCpf1 and in the data set with PxCpf1 was approximately 2 fold vs crRNA2 each time.
